Paper PMC3324550, “Antibiotic Resistance Is Prevalent in an Isolated Cave Microbiome” (PLoS ONE, 2012)

Columns and labels:
[1] = system: T1, MPH (2′)-II from B. paraconglomeratum (mphE); assay: pyruvate kinase/lactate dehydrogenase coupled assay, NADH absorbance at […] nm; assay type: biochemical, Brachybacterium paraconglomeratum
T1 construct: codon-optimised synthetic gene in pET28b (NdeI/HindIII), E. coli BL21(DE3); IMAC and gel filtration

[2] = molecular target: T1, MPH (2′)-II from B. paraconglomeratum (mphE); assay: as above; assay type: biochemical, Brachybacterium paraconglomeratum; conditions: substrate inhibition constant (substrate-inhibition fit); GTP 200 µM
[3] = system: CC[C@H]1OC(=O)[C@H](C)C(=O)[C@H](C)[C@@H](O[C@@H]2O[C@H](C)C[C@H](N(C)C)[C@H]2O)[C@](C)(OC)C[C@@H](C)C(=O)[C@H](C)[C@H]2N(CCCCn3cnc(-c4cccnc4)c3)C(=O)O[C@]12C; assay: purified protein; assay type: biochemical, Brachybacterium faecium; conditions: GTP 200 µM
[4] = system: CC[C@H]1OC(=O)[C@H](C)[C@@H](O[C@H]2C[C@@](C)(OC)[C@@H](O)[C@H](C)O2)[C@H](C)[C@@H](O[C@@H]2O[C@H](C)C[C@H](N(C)C)[C@H]2O)[C@](C)(O)C[C@@H](C)/C(=N\OCOCCOC)[C@H](C)[C@@H](O)[C@]1(C)O; assay: purified protein; assay type: biochemical, Brachybacterium faecium; conditions: GTP 200 µM
[5] = system: CC[C@H]1OC(=O)[C@H](C)[C@@H](O[C@H]2C[C@@](C)(OC)[C@@H](O)[C@H](C)O2)[C@H](C)[C@@H](O[C@@H]2O[C@H](C)C[C@H](N(C)C)[C@H]2O)[C@](C)(O)C[C@@H](C)C(=O)[C@H](C)[C@@H](O)[C@]1(C)O; assay: purified protein; assay type: biochemical, Brachybacterium faecium; conditions: GTP 200 µM
[6] = system: CC[C@H]1OC(=O)[C@H](C)[C@@H](O[C@H]2C[C@@](C)(OC)[C@@H](O)[C@H](C)O2)[C@H](C)[C@@H](O[C@@H]2O[C@H](C)C[C@H](N(C)C)[C@H]2O)[C@](C)(O)C[C@@H](C)CN(C)[C@H](C)[C@@H](O)[C@]1(C)O; assay: purified protein; assay type: biochemical, Brachybacterium faecium; conditions: GTP 200 µM
[7] = system: CC[C@H]1OC(=O)[C@H](C)[C@@H](O[C@H]2C[C@@](C)(OC)[C@@H](O)[C@H](C)O2)[C@H](C)[C@@H](O[C@@H]2O[C@H](C)C[C@H](N(C)C)[C@H]2O)[C@](C)(OC)C[C@@H](C)C(=O)[C@H](C)[C@@H](O)[C@]1(C)O; assay: purified protein; assay type: biochemical, Brachybacterium faecium; conditions: GTP 200 µM
[8] = system: Nc1nc2c(ncn2[C@@H]2O[C@H](COP(=O)(O)OP(=O)(O)OP(=O)(O)O)[C@@H](O)[C@H]2O)c(=O)[nH]1; assay: purified protein; assay type: biochemical, Brachybacterium faecium; conditions: erythromycin 400 µM (table note; methods say 200 µM macrolide)

CC[C@H]1OC(=O)[C@H](C)[C@@H](O[C@H]2C[C@@](C)(OC)[C@@H](O)[C@H](C)O2)[C@H](C)[C@@H](O[C@@H]2O[C@H](C)C[C@H](N(C)C)[C@H]2O)[C@](C)(O)C[C@@H](C)CN(C)[C@H](C)[C@@H](O)[C@]1(C)O [Azithromycin]
Km ([1]; GTP 200 µM): 54 ± 7.59 µM

CC[C@H]1OC(=O)[C@H](C)[C@@H](O[C@H]2C[C@@](C)(OC)[C@@H](O)[C@H](C)O2)[C@H](C)[C@@H](O[C@@H]2O[C@H](C)C[C@H](N(C)C)[C@H]2O)[C@](C)(O)C[C@@H](C)/C(=N\OCOCCOC)[C@H](C)[C@@H](O)[C@]1(C)O [Roxithromycin]
Km ([1]; GTP 200 µM): 59 ± 10.9 µM

Nc1nc2c(ncn2[C@@H]2O[C@H](COP(=O)(O)OP(=O)(O)OP(=O)(O)O)[C@@H](O)[C@H]2O)c(=O)[nH]1 [GTP]
Km ([1]; erythromycin 400 µM (table note; methods say 200 µM macrolide)): 10.2 ± 0.53 µM

CC[C@H]1OC(=O)[C@H](C)[C@@H](O[C@H]2C[C@@](C)(OC)[C@@H](O)[C@H](C)O2)[C@H](C)[C@@H](O[C@@H]2O[C@H](C)C[C@H](N(C)C)[C@H]2O)[C@](C)(O)C[C@@H](C)C(=O)[C@H](C)[C@@H](O)[C@]1(C)O [Erythromycin]
Km ([1]; GTP 200 µM): 43.8 ± 11.3 µM

CC[C@H]1OC(=O)[C@H](C)C(=O)[C@H](C)[C@@H](O[C@@H]2O[C@H](C)C[C@H](N(C)C)[C@H]2O)[C@](C)(OC)C[C@@H](C)C(=O)[C@H](C)[C@H]2N(CCCCn3cnc(-c4cccnc4)c3)C(=O)O[C@]12C [Telithromycin]
Km ([1]; GTP 200 µM, substrate-inhibition fit): 12.2 ± 5 µM
Ki [2]: 600 ± 285 µM

CC[C@H]1OC(=O)[C@H](C)[C@@H](O[C@H]2C[C@@](C)(OC)[C@@H](O)[C@H](C)O2)[C@H](C)[C@@H](O[C@@H]2O[C@H](C)C[C@H](N(C)C)[C@H]2O)[C@](C)(OC)C[C@@H](C)C(=O)[C@H](C)[C@@H](O)[C@]1(C)O [Clarithromycin]
Km ([1]; GTP 200 µM): 21.9 ± 5.45 µM

MPH (2′)-II from B. faecium DSM 4810 (Brachybacterium faecium DSM 4810)
Km [3]: 23.9 ± 4.22 µM
kcat [3]: 0.168 s⁻¹
kcat/Km [3]: 7050 M⁻¹ s⁻¹
Km [4]: 19.3 ± 2.60 µM
kcat [4]: 0.262 s⁻¹
kcat/Km [4]: 13600 M⁻¹ s⁻¹
Km [5]: 38.2 ± 6.24 µM
kcat [5]: 0.192 s⁻¹
kcat/Km [5]: 5030 M⁻¹ s⁻¹
Km [6]: 60.6 ± 8.86 µM
kcat [6]: 0.312 s⁻¹
kcat/Km [6]: 5180 M⁻¹ s⁻¹
Km [7]: 42.0 ± 6.26 µM
kcat [7]: 0.286 s⁻¹
kcat/Km [7]: 6810 M⁻¹ s⁻¹
Km [8]: 16.0 ± 1.3 µM
kcat [8]: 0.203 s⁻¹
kcat/Km [8]: 12700 M⁻¹ s⁻¹
